The source of these data is patent US20210179728A1.

Experiment [1] deals with SIRPg on human CD3+ T cells (human) (UniProt Q9P1W8). The experiment is described as follows: flow cytometry on peripheral human CD3+ T cells; Exp 1 HV1 [B, table B]. On the technique in general: Flow cytometry measures light scatter and fluorescence of single cells or particles in a stream.
Experiment [2] has the same target. The experiment is described as follows: flow cytometry on peripheral human CD3+ T cells; Exp 1 HV2 [B, table B].
Experiment [3] deals with SIRPa on human monocytes (human) (UniProt P78324). The experiment is described as follows: flow cytometry on human monocytes v1/v1, PE anti-human Fc; MFI [B, panel B table].
Experiment [4] has the same target. The experiment is described as follows: flow cytometry on human monocytes v1/v1, PE anti-human Fc; percent of stained monocytes [B, panel A table].
The target of experiment [5] is recombinant hSIRPa (Sino Biologicals, reference 11612-H08H) (human) (UniProt P78324). Description: SPR (Biacore); SIRPa-His immobilized on CM5 chip, antibody injected. (In general: SPR reads the build-up and loss of mass on a sensor chip optically.)
Experiment [6] has as its target recombinant hSIRPa (Sino Biologicals, reference 10975-H08H) (human) (UniProt P78324). The experiment is described as follows: ELISA on immobilized recombinant hSIRPa, anti-mouse Fc detection; given as ED50. A general note: An ELISA detects its analyte on a solid surface through an enzyme-linked reagent.
Experiment [7] deals with CD47 on human T cells, red blood cells and platelets (human) (UniProt Q08722). The experiment is described as follows: flow cytometry on peripheral human CD3+ T cells; Exp 1 HV1 [B, table B].
Experiment [8] has the same target. Description: flow cytometry on peripheral human CD3+ T cells; Exp 1 HV2 [B, table B].

Values joined by “and” are separate entries in the source; they are usually repeats but may differ in a detail not shown here. Equal values may be shown once.

SIRPg on human CD3+ T cells (human), sequence (Q9P1W8 29-387): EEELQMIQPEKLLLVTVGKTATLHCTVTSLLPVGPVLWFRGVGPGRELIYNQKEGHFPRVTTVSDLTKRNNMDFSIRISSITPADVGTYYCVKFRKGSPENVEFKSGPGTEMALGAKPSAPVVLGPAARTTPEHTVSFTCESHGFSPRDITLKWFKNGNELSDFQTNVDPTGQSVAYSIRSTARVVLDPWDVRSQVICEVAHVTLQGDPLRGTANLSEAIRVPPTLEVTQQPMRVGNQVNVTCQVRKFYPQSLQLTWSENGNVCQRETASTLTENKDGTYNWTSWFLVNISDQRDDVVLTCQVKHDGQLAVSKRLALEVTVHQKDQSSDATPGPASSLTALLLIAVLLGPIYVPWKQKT

In the case of Ctrl Ab II (antibody), the values for the % of positive T-cells in experiment [1] and in experiment [2] were 0.45% and 1.12%, respectively.
For the substance Kwar23 (antibody), the EC50 amounted to 0.378 µg/mL in experiment [3] and 0.26 µg/mL in experiment [4].
Turning to LSB2.20 (antibody), the % of positive T-cells in experiment [1] was determined as 91.4%; in experiment [2], 98.4%.
In experiment [2], Mouse isotype Ctrl (antibody) showed a % of positive T-cells of 0.016%.
SE5A5 (antibody) returned a % of positive T-cells in experiment [1] of 3.72%. This substance also showed a % of positive T-cells in experiment [2] of 7.69%. For the same substance, in experiment [5], the Kd came out at 38.7 nM, the koff amounted to 0.000949 s⁻¹ and the kon is 24500 M⁻¹ s⁻¹. Moreover, the EC50 in experiment [6] is 0.16 nM and 0.024 µg/mL.
With SE7C2 (antibody), in experiment [5], the Kd is 1670 nM, the koff worked out at 0.01 s⁻¹ and the kon worked out at 5980 M⁻¹ s⁻¹.
Turning to SIRPa-fc (Fc fusion), the % of positive T-cells stood at 72.2% in experiment [7] and 80.1% in experiment [8].

As usually defined, the EC50 is the midpoint of the concentration-response curve. The Kd is the free concentration of one partner at which half of the binding sites on the other are occupied at equilibrium, for simple one-to-one binding. By koff is commonly meant the rate constant with which the complex falls apart. In general, kon refers to a measure of how fast the partners come together.
